Tests used:
Assay in all cases: cell-based or functional assay
[1] = target: HIV-1 MGRM-C-012 Env on pseudovirus (HIV-1)
[2] = target: HIV-1 JRFL Env on pseudovirus (HIV-1)
[3] = target: HIV-1 94UG103 Env (HIV-1)
[4] = target: HIV-1 MGRM-C-023 Env on pseudovirus (HIV-1)
[5] = target: HIV-1 93UG077 Env (HIV-1)
[6] = target: HIV-1 MGRM-D-020 Env (HIV-1)
aMLV envelope = target: aMLV envelope
HIV-1 APV-13 Env (HIV-1) = target: HIV-1 APV-13 Env (HIV-1)
[7] = target: HIV-1 MGRM-C-014 Env on pseudovirus (HIV-1)
[8] = target: HIV-1 MGRM-C-024 Env on pseudovirus (HIV-1)
[9] = target: HIV-1 MGRM-G-025 Env (HIV-1)
[10] = target: HIV-1 MGRM-F1-010 Env (HIV-1)
[11] = target: HIV-1 MGRM-Chronic-B-011 Env on pseudovirus (HIV-1)
[12] = target: HIV-1 6535.3 (Acute) Env on pseudovirus (HIV-1)
[13] = target: HIV-1 MGRM-G-028 Env (HIV-1)
[14] = target: HIV-1 MGRM-AG-012 Env (HIV-1)
[15] = target: HIV-1 MGRM-C-020 Env on pseudovirus (HIV-1)
[16] = target: HIV-1 MGRM-D-024 Env (HIV-1)
[17] = target: HIV-1 IAVI-C3 Env (HIV-1)
[18] = target: HIV-1 MGRM-G-014 Env (HIV-1)
[19] = target: HIV-1 MGRM-AG-005 Env (HIV-1)
[20] = target: HIV-1 MGRM-C-001 Env on pseudovirus (HIV-1)
[21] = target: HIV-1 IAVI-C22 Env (HIV-1)
[22] = target: HIV-1 MGRM-D-003 Env (HIV-1)
[23] = target: HIV-1 93IN905 Env (HIV-1)
[24] = target: HIV-1 MGRM-AE-006 Env (HIV-1)
[25] = target: HIV-1 MGRM-G-016 Env (HIV-1)
[26] = target: HIV-1 92RW020 Env (HIV-1)
HIV-1 NL43 Env (HIV-1) = target: HIV-1 NL43 Env (HIV-1)
[27] = target: HIV-1 MGRM-G-001 Env (HIV-1)
[28] = target: HIV-1 92TH021 Env (HIV-1)
[29] = target: HIV-1 MGRM-F1-015 Env (HIV-1)
[30] = target: HIV-1 MGRM-AG-011 Env (HIV-1)
[31] = target: HIV-1 APV_13 Env on pseudovirus (HIV-1)
[32] = target: HIV-1 MGRM-D-002 Env (HIV-1)
[33] = target: HIV-1 MGRM-F1-021 Env (HIV-1)
[34] = target: HIV-1 MGRM-G-024 Env (HIV-1)
[35] = target: HIV-1 98CN009 Env on pseudovirus (HIV-1)
[36] = target: HIV-1 NL43 Env on pseudovirus (HIV-1)
[37] = target: HIV-1 MGRM-G-019 Env (HIV-1)
[38] = target: HIV-1 MGRM-F1-020 Env (HIV-1)
[39] = target: HIV-1 MGRM-G-015 Env (HIV-1)
[40] = target: HIV-1 MGRM-D-014 Env (HIV-1)
[41] = target: HIV-1 MGRM-AG-008 Env (HIV-1)
[42] = target: HIV-1 MGRM-Chronic-B-020 Env on pseudovirus (HIV-1)
[43] = target: HIV-1 92BR020 Env on pseudovirus (HIV-1)
[44] = target: HIV-1 MGRM-C-025 Env on pseudovirus (HIV-1)
[45] = target: HIV-1 MGRM-AG-003 Env (HIV-1)
[46] = target: HIV-1 MGRM-C-004 Env on pseudovirus (HIV-1)
[47] = target: HIV-1 MGRM-D-021 Env (HIV-1)
HIV-1 APV-17 Env (HIV-1) = target: HIV-1 APV-17 Env (HIV-1)
[48] = target: HIV-1 MGRM-AG-009 Env (HIV-1)

For 4E10 (antibody), the IC50 [1] was 0.44 µg/mL, the IC50 [2] was 18.9 µg/mL and the neutralization IC50 [3] was 9.7 µg/mL. It also gave a neutralization IC90 [3] of over 50 µg/mL, an IC50 [4] of 1.95 µg/mL and a neutralization IC50 [5] of 11.2 µg/mL. The neutralization IC90 [5] was over 50 µg/mL, the IC50 (µg/ml), pseudovirus neutralization [6] was over 50 µg/mL and the neutralization IC50 (aMLV envelope) was over 50 µg/mL. For the same substance, the neutralization IC90 (aMLV envelope) was over 50 µg/mL, the neutralization IC50 (HIV-1 APV-13 Env (HIV-1)) was 3.8 µg/mL and the IC50 [7] was 2.48 µg/mL. The IC50 [8] was 22.6 µg/mL, the IC50 (µg/ml), pseudovirus neutralization [9] was 1.7 µg/mL and the IC50 (pseudovirus neutralization) [10] was 3.69 µg/mL. The IC50 [11] was 1.07 µg/mL, the IC50 [12] was 1.23 µg/mL and the IC50 (µg/ml), pseudovirus neutralization [13] was 6.32 µg/mL. The IC50 (µg/ml), pseudovirus neutralization [14] was 0.86 µg/mL, the IC50 [15] was 2.8 µg/mL and the IC50 (µg/ml), pseudovirus neutralization [16] was 3.6 µg/mL. For the same substance, the neutralization IC50 [17] was 5 µg/mL, the IC50 (µg/ml), pseudovirus neutralization [18] was 13.7 µg/mL and the IC50 (µg/ml), pseudovirus neutralization [19] was 2.13 µg/mL. For the same substance, the IC50 [20] was 5.66 µg/mL, the neutralization IC50 [21] was 1.02 µg/mL and the neutralization IC90 [21] was 16.4 µg/mL. The IC50 (µg/ml), pseudovirus neutralization [22] was 2.49 µg/mL, the neutralization IC50 [23] was 1.55 µg/mL and the neutralization IC90 [23] was 12.8 µg/mL. For the same substance, the IC50 (µg/ml), pseudovirus neutralization [24] was 0.23 µg/mL, the IC50 (µg/ml), pseudovirus neutralization [25] was 1.02 µg/mL and the neutralization IC50 [26] was 3.38 µg/mL. For the same substance, the neutralization IC90 [26] was 36.1 µg/mL, the neutralization IC50 (HIV-1 NL43 Env (HIV-1)) was 4.95 µg/mL and the neutralization IC90 (HIV-1 NL43 Env (HIV-1)) was 29.6 µg/mL. For the same substance, the IC50 (µg/ml), pseudovirus neutralization [27] was 2.04 µg/mL, the IC50 (µg/ml), pseudovirus neutralization [28] was 1.17 µg/mL and the neutralization IC50 [28] was 1.9 µg/mL. For the same substance, the neutralization IC90 [28] was 23.5 µg/mL, the IC50 (pseudovirus neutralization) [29] was 0.53 µg/mL and the IC50 (µg/ml), pseudovirus neutralization [30] was 1.36 µg/mL. The IC50 [31] was 7.33 µg/mL, the IC50 (µg/ml), pseudovirus neutralization [32] was 9.44 µg/mL and the IC50 (pseudovirus neutralization) [33] was 1.87 µg/mL. It also gave an IC50 (µg/ml), pseudovirus neutralization [34] of 1.57 µg/mL, an IC50 [35] of 2.46 µg/mL and an IC50 [36] of 4.67 µg/mL. The IC50 (µg/ml), pseudovirus neutralization [37] was 6.53 µg/mL, the IC50 (pseudovirus neutralization) [38] was 0.66 µg/mL and the IC50 (µg/ml), pseudovirus neutralization [39] was 1.07 µg/mL. It also gave an IC50 (µg/ml), pseudovirus neutralization [40] of 3.24 µg/mL, an IC50 (µg/ml), pseudovirus neutralization [41] of 1.48 µg/mL and an IC50 [42] of 2.45 µg/mL. The IC50 [43] was over 50 µg/mL, the IC50 [44] was 5.58 µg/mL and the IC50 (µg/ml), pseudovirus neutralization [45] was 0.64 µg/mL. For the same substance, the IC50 [46] was 24.2 µg/mL, the IC50 (µg/ml), pseudovirus neutralization [47] was 13.3 µg/mL and the neutralization IC50 (HIV-1 APV-17 Env (HIV-1)) was 5.1 µg/mL. It also gave an IC50 (µg/ml), pseudovirus neutralization [48] of 31.4 µg/mL.
